The text below walks through data of PMC6286387, “Physical and thermodynamic characterization of the rice gibberellin receptor/gibberellin/DELLA protein complex” (Scientific Reports, 2018).

The target in series [1] is T1, SLR1(M28-A112), Trx-free (rice (Oryza sativa), UniProt Q7G7J6 28-112).
T1 construct: DELLA protein SLR1 of rice (Oryza sativa), residues M28-A112; 13C/15N-labelled for the NMR spectra; also called SLR(M28-A112); source: E. coli, purified (HiTrap Chelating, Superdex 200; thrombin, HiTrap Chelating, Superdex 75); not shown: Trx, N-terminal, cleaved; His6, N-terminal, cleaved
T1 sequence (looked up): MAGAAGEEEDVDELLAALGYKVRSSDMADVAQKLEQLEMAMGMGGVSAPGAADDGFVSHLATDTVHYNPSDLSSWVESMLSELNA
The series can be described thus: ITC; 10 μl aliquants of 400 μM OsGID1/GA3 into 1.4482 ml of 50 μM SLR1 variant, 30 °C, 20 mM sodium phosphate (pH 7.5), 150 mM NaCl, 2.0 mM β-ME, 0.1 mM GA3. Conditions: both partners purified. (In general: In ITC the heat of successive injections is recorded.)

Series [2] concerns the molecule itself. The experiment in a line: SAXS; Trx-free proteins, about 3.0 mg/ml, 20 mM sodium phosphate (pH 7.5), 150 mM NaCl, 2.0 mM β-ME, 0.1 mM GA3, 25 °C; mass from I(0), Guinier and Kratky plots.
The target in series [3] is T1, SLR1(M28-A112), Trx-free. The description is as above. The settings on record: both partners purified.
The target in series [4] is T1, SLR1(M28-A112), Trx-free. The experiment in a line: ITC; 10 μl aliquants of 400 μM OsGID1/GA3 into 1.4482 ml of 50 μM SLR1 variant, 30 °C, 20 mM sodium phosphate (pH 7.5), 150 mM NaCl, 2.0 mM β-ME, 0.1 mM GA3. The settings on record: both partners purified. This is another data set of the same source.
A further series concerns the target T2, SLR1(M1-A172) (rice (Oryza sativa), UniProt Q7G7J6 1-172).
T2 construct: DELLA protein SLR1 of rice (Oryza sativa), residues M1-A172; Named without Trx in the ITC experiments; removal of the tag is told in general in the methods; also called SLR(M1-A172); source: E. coli, purified (HiTrap Chelating, Superdex 200; thrombin, HiTrap Chelating, Superdex 75); not shown: Trx, N-terminal, cleaved; His6, N-terminal, cleaved
T2 sequence (looked up): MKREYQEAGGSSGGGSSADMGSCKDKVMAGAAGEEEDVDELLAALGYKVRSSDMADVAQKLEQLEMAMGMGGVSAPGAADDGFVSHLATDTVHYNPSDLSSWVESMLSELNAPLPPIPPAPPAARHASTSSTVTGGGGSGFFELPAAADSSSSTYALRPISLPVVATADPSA
The series is described as above. The settings on record: both partners purified.

In the next series the target is T3, SLR1(M1-H327) (rice (Oryza sativa), UniProt Q7G7J6 1-327).
T3 construct: DELLA protein SLR1 of rice (Oryza sativa), residues M1-H327; Named without Trx in the ITC experiments; removal of the tag is told in general in the methods; also called SLR(M1-H327); source: E. coli, purified (HiTrap Chelating, Superdex 200; thrombin, HiTrap Chelating, Superdex 75); not shown: Trx, N-terminal, cleaved; His6, N-terminal, cleaved
T3 sequence (looked up): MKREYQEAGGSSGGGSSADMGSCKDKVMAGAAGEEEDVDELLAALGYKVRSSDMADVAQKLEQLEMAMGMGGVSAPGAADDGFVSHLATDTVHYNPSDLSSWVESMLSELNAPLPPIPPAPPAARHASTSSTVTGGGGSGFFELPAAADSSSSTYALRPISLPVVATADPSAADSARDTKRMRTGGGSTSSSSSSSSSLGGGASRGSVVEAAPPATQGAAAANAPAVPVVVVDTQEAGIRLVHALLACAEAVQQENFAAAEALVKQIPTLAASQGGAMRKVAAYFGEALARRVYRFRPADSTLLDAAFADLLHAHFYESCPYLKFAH
The description is as above. The settings on record: both partners purified.

Series [5] addresses T4, SLR1(M28-A112) ΔSPACE(G69-F83) (rice (Oryza sativa), UniProt Q7G7J6 28-112, ΔSPACE(G69-F83)).
T4 construct: DELLA protein SLR1 of rice (Oryza sativa), residues M28-A112 with G69-F83 deleted; Named without Trx in the ITC experiments; removal of the tag is told in general in the methods; also called SLR(M28-A112)ΔSPACE; source: E. coli, purified (HiTrap Chelating, Superdex 200; thrombin, HiTrap Chelating, Superdex 75); not shown: Trx, N-terminal, cleaved; His6, N-terminal, cleaved
T4 sequence (looked up): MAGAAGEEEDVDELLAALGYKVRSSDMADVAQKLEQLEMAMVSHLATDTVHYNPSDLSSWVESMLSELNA
The series is described as above. The settings on record: both partners purified.

For series [6], the target named is SLR1(M1-E104), Trx-free (rice (Oryza sativa)) (UniProt Q7G7J6). The description is as above.

B1: OsGID1 (rice gibberellin receptor GID1), Trx-free, used as the OsGID1/GA3 complex (receptor, rice (Oryza sativa), UniProt Q6L545 1-354, looked up)
chain: MAGSDEVNRNECKTVVPLHTWVLISNFKLSYNILRRADGTFERDLGEYLDRRVPANARPLEGVSSFDHIIDQSVGLEVRIYRAAAEGDAEEGAAAVTRPILEFLTDAPAAEPFPVIIFFHGGSFVHSSASSTIYDSLCRRFVKLSKGVVVSVNYRRAPEHRYPCAYDDGWTALKWVMSQPFMRSGGDAQARVFLSGDSSGGNIAHHVAVRAADEGVKVCGNILLNAMFGGTERTESERRLDGKYFVTLQDRDWYWKAYLPEDADRDHPACNPFGPNGRRLGGLPFAKSLIIVSGLDLTCDRQLAYADALREDGHHVKVVQCENATVGFYLLPNTVHYHEVMEEISDFLNANLYY
notes: Gibberellin receptor GID1 of rice (Oryza sativa); theoretical MW of the dimer printed as 79.2 kDa; The printed mass (39.6 kDa a monomer) fits the whole protein; source: recombinant, purified
As for B1, the dH with SLR1(M28-A112), Trx-free [1] was -8.44 kcal/mol; in the series with SLR1(M28-A112), Trx-free [4], -6.9 kcal/mol; with SLR1(M1-A172), -6.8 kcal/mol; with SLR1(M1-H327), -7.1 kcal/mol; in series [5], -8.3 kcal/mol; in series [6], -8.4 kcal/mol. Moreover, the stoichiometry N – broadly, a count of units in the complex or per binding partner – came to 0.92 in the series with SLR1(M28-A112), Trx-free [1]; 2 in series [2]; 1 with SLR1(M28-A112), Trx-free [3]; 1.06 in the series with SLR1(M28-A112), Trx-free [4]; 1.06 in the series with SLR1(M1-A172); 1.01 with SLR1(M1-H327). Also, the “stoichiometry N” value in series [5] worked out at 0.5; in series [6], 1. The molecule further displayed a Ka in series [6] of 11000 M⁻¹.
